Results as given in US20120172306A1, “Use of HASF as a Protective Agent Against Ischemic Tissue Damage” (Duke University, priority 2009, published 2012).

What was measured:
adult rat cardiomyocytes [1] = experiment: Caspase-Glo 9 and 3/7 assays of H2O2 induced apoptosis; assay type: cell-based; conditions: 10 nM for 30 min, 100 μM H2O2, 5 h
Description: FIGS. 2B and 2C are bar graphs showing relative caspase activity. Adult rat cardiomyocytes were freshly isolated and treated ±10 nM of HASF for 30 min, and then challenged with 100 μM of H2O2 for various time points. H2O2 induced apoptosis in cardiomyocytes was evidenced by the dynamic increase in the activities of the initiator Caspase 9 and effector Caspase […] at 5 h, 7 h and 9 h respectively. Y axis represent the relative amount of luminescence indicating the relative amount of active Caspase activities. ** P<0.01 and *** P<0.001. Data are presented as means±standard deviation of triplicates.
FIG. 3C is a bar graph showing fold-change in caspase activity. Serum-starved adult rat cardiomyocytes were treated with 3 μM PKC inhibitors or vehicle DMSO for 30 minutes, then 100 nM HASF recombinant protein was added for 30 minutes followed by treatment with 200 μM H2O2 for 3 hours. Apoptosis was determined by detection of Caspase-9 activity using a homogeneous luminescent assay. All samples were measured in triplicates. *P<0.05 vs. non-HASF treated cells.
FIG. 4C is a bar graph showing relative caspase activity in adult cardiomyocytes. Apoptosis as determined by detection of Caspase-9 activity on adult rat cardiomyocytes pre-treated with 178 μM PKC translocation inhibitor peptide for 10 minutes and then with 100 nM of HASF for 30 minutes. Thereafter, cells were challenged with 200 μM H2O2 for 3 hours. All samples were measured in triplicates. *P <0.05 vs. non-HASF treated cells and the experiment was repeated multiple times.
Adult rat ventricular cardiomyocytes were isolated from 6 weeks old female Sprague-Dawley rat (Harlan World Headquarters, Indianapolis, Ill., USA) hearts by enzymatic digestion and were seeded in (6-well) plates or Delta T culture dishes (Bioptechs, Inc., Pa.) pre-coated with 1 μg/cm2 of laminin (Sigma) at 5×10^4/well and cultured overnight in serum-free M199 medium (Sigma), supplemented with 2 mM of L-carnitine, 5 mM of creatine, 5 mM of taurine, 0.2% of albumin, 100 U/ml of penicillin and 100 μg/ml of streptomycin. […]

adult rat cardiomyocytes [2] = experiment: Mitochondrial permeability transition pore (mPTP) channel opening after hypoxia/reoxygenation; assay type: cell-based; conditions: HASF (100 nM) prior to hypoxia/reoxygenation, vs control untreated samples
Description: FIG. 2D is a series of photomicrographs and a bar graph showing that HASF protects from mPTP channel opening and cell death after ischemia and reperfusion. Adult rat cardiac myocytes were cold-loaded with fluorescent calcein and CoCl2 and subjected to 3-5 h of ischemia followed by 30-60 min reperfusion. Mitochrondria were counterstained with TMRM. Under these conditions increased calcein intensity (green) indicate the entrapped calcein in mitochrondria which is due to reduction of open mPTP channels. Upper panel: Representative images of cells subjected to 3 h ischemia, 60 min reperfusion and cells treated with 100 nM HASF prior to 3 h ischemia, 60 min reperfusion. Lower panel: Quantitative fluorescence analysis of images represented above. The percentage of Calcein intensity was normalized to mitotracker, mitochondrial, intensity and the value was inverted and presented as of mPTP channel opening. Data are presented as means±stdev of values estimated from 8 images per condition.
FIG. 4D is a bar graph and a photomicrograph showing the effect of recombinant protein, HASF on mPTP channel as imaged by confocal microscopy. […] The presence of PKCepsilon inhibitor peptide caused the opening of the mPTP channel as observed by decreased (quenched) calcein intensity. The bar graph depicts measured fluorescence of calcein versus mitotracker intensity under different conditions. […]

B1: HASF: Hypoxia regulated Akt MSC Factor, secreted protein encoded by C3orf58; recombinant human protein without N-signal sequence, SEQ ID NO:1 or 2 (protein, UniProt Q8NDZ4 36-430, looked up)
Divergent protein kinase …: LASWQRNELTDRRFLQLNKCPACFGTSWCRRFLNGQVVFEAWGRLRLLDFLNVKNVYFAQYGEPREGGRRRVVLKRLGSQRELAQLDQSICKRATGRPRCDLLQAMPRTEFARLNGDVRLLTPEAVEGWSDLVHCPSQRLLDRLVRRYAETKDSGSFLLRNLKDSERMQLLLTLAFNPEPLVLQSFPSDEGWPFAKYLGACGRMVAVNYVGEELWSYFNAPWEKRVDLAWQLMEIAEQLTNNDFEFALYLLDVSFDNFAVGPRDGKVIIVDAENVLVADKRLIRQNKPENWDVWYESKFDDCDKEACLSFSKEILCARATVDHNYYAVCQNLLSRHATWRGTSGGLLHDPPSEIAKDGRLEALLDECANPKKRYGRFQAAKELREYLAQLSNNVR
modifications: 6xHis tag
Adult rat cardiomyocytes [1]
  reduction of Caspase 3/7: ~45%
  reduction of Caspase 9: ~38%
Adult rat cardiomyocytes [2]
  mPTP channel opening: reduced compared to control untreated samples
